Reference: the supplement of paper PMC10724198

Tests used:
Saccharomyces cerevisiae [1] = experiment: protein stability index of tFT-peptide fusion in wild type (PSI (0-1 scale)); higher = more stable (slower turnover); details: genetic background: wild type
Saccharomyces cerevisiae [2] = experiment: protein stability index of tFT-peptide fusion in deletion strain of DOA10 (PSI (0-1 scale)); higher = more stable (slower turnover)
Protocol: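 MPS profiling in S. cerevisiae of two library types built from selected 12-aa C-degron peptides (IN1, IN2, LN1, LN3, VN2, R1-R5, W1-W3, Atg1 and Rpa12 C-termini): saturation mutagenesis libraries and C-terminal +1 capping libraries (13 aa). Each peptide is fused to the C-terminus of a sfGFP-mCherry timer, after a GGGS linker. Cells are FACS-sorted into 8 mCherry/sfGFP bins and sequenced. PSI runs from 0 (unstable) to 1 (stable), measured once in wild type and in the das1Δ or doa10Δ background.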
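Throughout, for protein stability index of tFT-peptide fusion in deletion strain of DOA10: PSI per variant is the weighted mean of its sequencing read distribution over the sorted stability bins, counting only variants with over 10 reads summed across bins.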
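Throughout, for protein stability index of tFT-peptide fusion in wild type: PSI derived as read-weighted mean over the 8 sorting bins, only variants exceeding 10 total reads kept, mCherry placed adjacent to the peptide and sfGFP distal.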

Sequence	protein stability index (Saccharomyces cerevisiae [1])	protein stability index (Saccharomyces cerevisiae [2])
CYVSLPILLFFR	0.0495	0.582
EITLPMCPLLLR	0.338	0.656
FVTRLDAIYFRI	0.189	0.549
GHYMCSVGCWFR	0.365	0.643
GLDMCSVGCWFR	0.328	0.689
GLEMCSVGCWFR	0.241	0.658
GLFMCSVGCWFR	0.264	0.549
GLYFCSVGCWFR	0.202	0.607
GLYMCDVGCWFR	0.59	0.699
GLYMCSAGCWFR	0.427	0.696
GLYMCSVGCLFR	0.575	0.654
GLYMCSVGCNFR	0.632	0.648
GLYMCSVGCWAR	0.438	0.5
GLYMCSVGCWFRE	0.453	0.641
GLYMCSVGCWFRM	0.154	0.374
GLYMCSVGCWFRV	0.155	0.402
GLYMCSVGCWFT	0.423	0.484
GLYMCSVGCWMR	0.253	0.575
GLYMCSVGCWPR	0.64	0.67
GLYMCSVGCWQR	0.629	0.677
GLYMCSVGFWFR	0.364	0.545
GLYMCSVGPWFR	0.656	0.688

Sequence	protein stability index (Saccharomyces cerevisiae [1])	protein stability index (Saccharomyces cerevisiae [2])
GLYMCSVGQWFR	0.636	0.671
GLYMCSVGWWFR	0.499	0.557
GLYMCYVGCWFR	0.223	0.423
GLYMQSVGCWFR	0.287	0.678
GLYMTSVGCWFR	0.275	0.709
GLYVCSVGCWFR	0.2	0.573
HVTRLDAIYFRI	0.343	0.702
IITLPMCPLLLR	0.324	0.597
LVTRLDAIYFRI	0.234	0.604
MVTRLDAIYFRI	0.237	0.653
NLVSLPILLFFR	0.0961	0.629
PITLPMCPLLLR	0.471	0.648
PSLRVLLPLYFR	0.285	0.679
PVTRLDAIYFRI	0.425	0.693
RSCRVLLPLYFR	0.275	0.66
RSLDVLLPLYFR	0.244	0.685
RSLFVLLPLYFR	0.265	0.613
RSLLVLLPLYFR	0.344	0.638
RSLRDLLPLYFR	0.507	0.702
RSLRELLPLYFR	0.476	0.698
RSLRHLLPLYFR	0.45	0.693
RSLRVGLPLYFR	0.287	0.665

Sequence	protein stability index (Saccharomyces cerevisiae [1])	protein stability index (Saccharomyces cerevisiae [2])
RSLRVKLPLYFR	0.195	0.667
RSLRVLGPLYFR	0.344	0.687
RSLRVLLDLYFR	0.64	0.654
RSLRVLLPAYFR	0.577	0.65
RSLRVLLPHYFR	0.663	0.683
RSLRVLLPLLFR	0.371	0.661
RSLRVLLPLYFP	0.634	0.657
RSLRVLLPLYFRC	0.218	0.476
RSLRVLLPLYFRY	0.259	0.606
RSLRVLLPMYFR	0.334	0.658
RSLRVLLPNYFR	0.64	0.673
RSLRVLLPRYFR	0.637	0.664
RSLRVLLPVYFR	0.278	0.632
RSLRVLLPWYFR	0.606	0.666
RSLRVLPPLYFR	0.273	0.697
RSLRVLTPLYFR	0.246	0.68
RSLYVLLPLYFR	0.261	0.619
RVTMLDAIYFRI	0.52	0.614
RVTNLDAIYFRI	0.55	0.677
RVTREDAIYFRI	0.625	0.699
RVTRLCAIYFRI	0.178	0.339
RVTRLDAHYFRI	0.684	0.71

Sequence	protein stability index (Saccharomyces cerevisiae [1])	protein stability index (Saccharomyces cerevisiae [2])
RVTRLDAIEFRI	0.704	0.7
RVTRLDAIMFRI	0.496	0.686
RVTRLDAIYFAI	0.481	0.542
RVTRLDAIYFFI	0.471	0.495
RVTRLDAIYFMI	0.162	0.173
RVTRLDAIYFRIL	0.0595	0.0992
RVTRLDAIYFRW	0.472	0.709
RVTRLDAIYFRY	0.447	0.722
RVTRLDAIYFVI	0.194	0.233
RVTRLDAIYHRI	0.662	0.723
RVTRLDAIYIRI	0.325	0.683
RVTRLDAIYQRI	0.664	0.707
RVTRLDAIYTRI	0.688	0.716
RVTRLDAIYYRI	0.582	0.716
RVTRLDAPYFRI	0.676	0.722
RVTRLDAQYFRI	0.668	0.683
RVTSLDAIYFRI	0.55	0.669
RVYRLDAIYFRI	0.321	0.587
SLYMCSVGCWFR	0.387	0.644
TITLPMCPLLLR	0.296	0.633
TLYMCSVGCWFR	0.375	0.614
TVTRLDAIYFRI	0.364	0.707
